Measured values from paper PMC3161067, “Combined SAXS/EM Based Models of the S. elongatus Post-Translational Circadian Oscillator and its Interactions with the Output His-Kinase SasA” (PLoS ONE, 2011).
Blank lines part the entries; values can stand above or below the binder they belong to.

B3: wild type KaiC (S. elongatus) (natural protein, UniProt Q79PF4 1-519, looked up)
chain: MTSAEMTSPNNNSEHQAIAKMRTMIEGFDDISHGGLPIGRSTLVSGTSGTGKTLFSIQFLYNGIIEFDEPGVFVTFEETPQDIIKNARSFGWDLAKLVDEGKLFILDASPDPEGQEVVGGFDLSALIERINYAIQKYRARRVSIDSVTSVFQQYDASSVVRRELFRLVARLKQIGATTVMTTERIEEYGPIARYGVEEFVSDNVVILRNVLEGERRRRTLEILKLRGTSHMKGEYPFTITDHGINIFPLGAMRLTQRSSNVRVSSGVVRLDEMCGGGFFKDSIILATGATGTGKTLLVSRFVENACANKERAILFAYEESRAQLLRNAYSWGMDFEEMERQNLLKIVCAYPESAGLEDHLQIIKSEINDFKPARIAIDSLSALARGVSNNAFRQFVIGVTGYAKQEEITGLFTNTSDQFMGAHSITDSHISTITDTIILLQYVEIRGEMSRAINVFKMRGSWHDKAIREFMISDKGPDIKDSFRNFERIISGSPTRITVDEKSELSRIVRGVQEKGPES
notes: KaiC, Synechococcus elongatus; C-terminal residue S519; Its phosphorylation state varies in the cycling reaction; also called wt-KaiC; TST; source: E. coli BL21, purified
B4: KaiC T432E/S431E double mutant (natural protein, S. elongatus, UniProt Q79PF4 1-519, looked up)
chain: MTSAEMTSPNNNSEHQAIAKMRTMIEGFDDISHGGLPIGRSTLVSGTSGTGKTLFSIQFLYNGIIEFDEPGVFVTFEETPQDIIKNARSFGWDLAKLVDEGKLFILDASPDPEGQEVVGGFDLSALIERINYAIQKYRARRVSIDSVTSVFQQYDASSVVRRELFRLVARLKQIGATTVMTTERIEEYGPIARYGVEEFVSDNVVILRNVLEGERRRRTLEILKLRGTSHMKGEYPFTITDHGINIFPLGAMRLTQRSSNVRVSSGVVRLDEMCGGGFFKDSIILATGATGTGKTLLVSRFVENACANKERAILFAYEESRAQLLRNAYSWGMDFEEMERQNLLKIVCAYPESAGLEDHLQIIKSEINDFKPARIAIDSLSALARGVSNNAFRQFVIGVTGYAKQEEITGLFTNTSDQFMGAHSITDSHIEEITDTIILLQYVEIRGEMSRAINVFKMRGSWHDKAIREFMISDKGPDIKDSFRNFERIISGSPTRITVDEKSELSRIVRGVQEKGPES
modifications: phosphoserine at 320 (in the A and F subunits of the crystal structure)
notes: KaiC, Synechococcus elongatus, with S431E and T432E; the tag is therefore uncertain; also called KaiC-ee; S431E/T432E
B5: KaiC T432A/S431A double mutant (natural protein, S. elongatus, UniProt Q79PF4 1-519, looked up)
chain: MTSAEMTSPNNNSEHQAIAKMRTMIEGFDDISHGGLPIGRSTLVSGTSGTGKTLFSIQFLYNGIIEFDEPGVFVTFEETPQDIIKNARSFGWDLAKLVDEGKLFILDASPDPEGQEVVGGFDLSALIERINYAIQKYRARRVSIDSVTSVFQQYDASSVVRRELFRLVARLKQIGATTVMTTERIEEYGPIARYGVEEFVSDNVVILRNVLEGERRRRTLEILKLRGTSHMKGEYPFTITDHGINIFPLGAMRLTQRSSNVRVSSGVVRLDEMCGGGFFKDSIILATGATGTGKTLLVSRFVENACANKERAILFAYEESRAQLLRNAYSWGMDFEEMERQNLLKIVCAYPESAGLEDHLQIIKSEINDFKPARIAIDSLSALARGVSNNAFRQFVIGVTGYAKQEEITGLFTNTSDQFMGAHSITDSHIAAITDTIILLQYVEIRGEMSRAINVFKMRGSWHDKAIREFMISDKGPDIKDSFRNFERIISGSPTRITVDEKSELSRIVRGVQEKGPES
notes: KaiC, Synechococcus elongatus, with S431A and T432A; the tag is therefore uncertain; also called KaiC-aa; S431A/T432A

Legend:
[1] = target: T1, KaiBC complex (KaiB with wild type KaiC) (S. elongatus, UniProt Q79PF5 1-102; Q79PF4 1-519); experiment: negative-stain EM; Kai complexes of the in vitro cycling reaction with 1x or 4x KaiA; reconstruction of class IV particles at ~30 Å; conditions: both partners purified
T1 construct: KaiB, Synechococcus elongatus, as m2; wild type KaiC, Synechococcus elongatus, as m3; KaiC phosphorylation state varies in the cycling reaction; also called KaiB-KaiC; source: formed in the in vitro cycling reaction from purified proteins; copies: + 6
T1 sequence (looked up) 1: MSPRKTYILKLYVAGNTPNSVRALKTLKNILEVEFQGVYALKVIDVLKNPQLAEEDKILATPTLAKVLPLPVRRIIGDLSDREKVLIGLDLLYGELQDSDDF
T1 sequence (looked up) 2: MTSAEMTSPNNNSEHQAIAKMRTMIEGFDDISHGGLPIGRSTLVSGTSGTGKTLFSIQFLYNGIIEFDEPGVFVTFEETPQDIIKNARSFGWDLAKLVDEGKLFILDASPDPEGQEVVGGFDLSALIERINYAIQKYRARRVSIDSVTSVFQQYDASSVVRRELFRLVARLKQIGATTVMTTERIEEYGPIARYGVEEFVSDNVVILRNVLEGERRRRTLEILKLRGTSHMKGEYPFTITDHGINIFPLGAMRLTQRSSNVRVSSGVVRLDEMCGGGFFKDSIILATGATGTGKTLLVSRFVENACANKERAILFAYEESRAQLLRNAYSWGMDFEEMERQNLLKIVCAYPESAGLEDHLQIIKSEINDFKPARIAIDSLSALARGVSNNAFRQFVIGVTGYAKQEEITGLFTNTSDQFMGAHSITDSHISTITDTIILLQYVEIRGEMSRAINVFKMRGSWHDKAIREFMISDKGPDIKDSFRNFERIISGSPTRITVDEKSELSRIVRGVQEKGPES

[2] = target: the molecule itself; experiment: SAXS; individual proteins in solution, 0.5-2.0 mg/mL, 10 or 20°C; ab initio envelopes (DAMMIN, GASBOR) compared with crystal structures
[3] = target: B5; experiment: SAXS; binary complexes in solution, conditions set by native PAGE, 0.5-2.0 mg/mL, 10 or 20°C; ab initio envelopes without symmetry; conditions: both partners purified
[4] = target: B5; experiment: negative-stain EM; SasA:KaiC-aa complex, uranyl formate 0.75%, class averages and 3D reconstruction (C1) at 23.5 Å; conditions: both partners purified
[5] = target: B4; experiment: SAXS; binary complexes in solution, conditions set by native PAGE, 0.5-2.0 mg/mL, 10 or 20°C; ab initio envelopes without symmetry; conditions: both partners purified
[6] = target: the molecule itself; experiment: negative-stain EM; Kai complexes of the in vitro cycling reaction with 1x or 4x KaiA; reconstruction of class IV particles at ~30 Å
[7] = target: the molecule itself; experiment: crystal structure; KaiC-ee with ATPγS, 3.0 Å, molecular replacement with PDB 3DVL
[8] = target: the molecule itself; experiment: negative-stain EM; SasA:KaiC-aa complex, uranyl formate 0.75%, class averages and 3D reconstruction (C1) at 23.5 Å
[9] = target: B3; experiment: negative-stain EM; Kai complexes of the in vitro cycling reaction with 1x or 4x KaiA; reconstruction of class IV particles at ~30 Å; conditions: both partners purified

B1: KaiA (S. elongatus) (natural protein, UniProt Q79PF6 1-284, looked up)
chain: MLSQIAICIWVESTAILQDCQRALSADRYQLQVCESGEMLLEYAQTHRDQIDCLILVAANPSFRAVVQQLCFEGVVVPAIVVGDRDSEDPDEPAKEQLYHSAELHLGIHQLEQLPYQVDAALAEFLRLAPVETMADHIMLMGANHDPELSSQQRDLAQRLQERLGYLGVYYKRDPDRFLRNLPAYESQKLHQAMQTSYREIVLSYFSPNSNLNQSIDNFVNMAFFADVPVTKVVEIHMELMDEFAKKLRVEGRSEDILLDYRLTLIDVIAHLCEMYRRSIPRET
notes: KaiA, Synechococcus elongatus; also called KaiA dimer; wt KaiA; source: E. coli BL21, GST fusion, purified
binding result [1]: binds
stoichiometry N [2]: 2
stoichiometry N [3]: 1 KaiA dimer per KaiC hexamer

Binder: B3
stoichiometry N [6]: 6

Binder: B4
stoichiometry N [7]: 6

Binder: B5
stoichiometry N [8]: 6

Now from value to binder, other results behind:

stoichiometry N [4]: 2 binding sites per KaiC hexamer
stoichiometry N [5]: 2 SasA dimers per KaiC hexamer
B2: SasA (S. elongatus His kinase) (natural protein, UniProt Q06904 1-387, looked up)
chain: MGESLSPQALAQPLLLQLFVDTRPLSQHIVQRVKNILAAVEATVPISLQVINVADQPQLVEYYRLVVTPALVKIGPGSRQVLSGIDLTDQLANQLPQWLVQQEAFFADREPPEVNIPFTELGQPETPALQQADAFFQLQQQYADLSERTKFLEQVIALVAHDLRNPLTAALLAVDTIQIRSQSFSVATAKEMQGLCSLFDQARSQLREIERMIAEILEATRHSGESLRINPREVVFEPLLQQVLEQLHERWRSKQQQLITDVPGDLPTLYADPDRLRQVLVNLLDNAIKYTPPGGTITIAALHRTSQKVQISISDTGSGIPRDQLSVIFKNLVRLSRDSSQEGYGIGLSVCQRIVQAHFGRIWVASELGQGSTFHFTMPVYRYTMPC
notes: SasA, adaptive-response sensory His kinase, Synechococcus elongatus; N-terminal sensory domain is residues 1-97; its expression and purification are not described; also called full-length SasA; wt SasA

binding result [9]: binds
stoichiometry N [5]: 2 KaiB dimers per KaiC hexamer
B6: KaiB (S. elongatus) (natural protein, UniProt Q79PF5 1-102, looked up)
chain: MSPRKTYILKLYVAGNTPNSVRALKTLKNILEVEFQGVYALKVIDVLKNPQLAEEDKILATPTLAKVLPLPVRRIIGDLSDREKVLIGLDLLYGELQDSDDF
notes: KaiB, Synechococcus elongatus; Tetramer free in solution; The crystal model used for SAXS (PDB 2QKE) is KaiB of another species (T. elongatus); also called KaiB tetramer; wt KaiB; source: E. coli BL21, GST fusion, purified
stoichiometry N [2]: 4
